Results published in patent publication US20110312883A1 (NTF THERAPEUTICS, published 2011).

T1: recombinant human GFRα2-Fc chimera (R&D Systems) (human, UniProt O00451 22-441)
T1 construct: Bought reagent; also called GFRalpha2-Fc fusion protein; soluble recombinant GFRα2-Fc chimera; not shown: Fc portion of human IgG1
T1 sequence (looked up): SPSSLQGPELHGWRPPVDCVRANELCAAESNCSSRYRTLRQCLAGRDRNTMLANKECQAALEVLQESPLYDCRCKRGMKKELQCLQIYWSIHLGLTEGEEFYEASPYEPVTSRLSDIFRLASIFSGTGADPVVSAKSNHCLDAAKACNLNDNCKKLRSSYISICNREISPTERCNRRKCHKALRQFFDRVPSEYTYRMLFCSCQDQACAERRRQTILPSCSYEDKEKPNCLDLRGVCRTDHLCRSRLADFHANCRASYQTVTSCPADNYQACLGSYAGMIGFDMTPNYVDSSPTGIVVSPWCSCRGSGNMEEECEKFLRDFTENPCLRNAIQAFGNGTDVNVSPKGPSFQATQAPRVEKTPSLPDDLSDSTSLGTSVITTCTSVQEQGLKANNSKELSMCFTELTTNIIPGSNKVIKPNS

B1: V5-tagged wild-type neurturin (ligand)
chain: ARGKPIPNPLLGLDSTSGARLGARPCGLRELEVRVSELGLGYASDETVLFRYCAGACEAAARVYDLGLRRLRQRRRLRRERVRAQPCCRPTAYEDEVSFLDAHSRYHTVHELSARECACV
notes: Secreted from transiently transfected CHO cells and used as crude conditioned medium; also called NRTN WT; E779
B2: V5-tagged neurturin variant NV3 (ligand)
chain: ARGKPIPNPLLGLDSTSGARLGARPCGLRELEVRVSELGLGYASDETVLFRYCAGACEAAARVYDLGLRALAQARALRAERVRAQPCCRPTAYEDEVSFLDAHSRYHTVHELSARECACV
notes: Crude conditioned medium of transfected CHO cells; also called NRTN NV3; NV3 (from N3)
B3: V5-tagged neurturin variant NV2 (ligand)
chain: ARGKPIPNPLLGLDSTSGARLGARPCGLRELEVRVSELGLGYASDETVLFRYCAGACEAAARVYDLGLRRLAQRRRLRAEAVRAQPCCRPTAYEDEVSFLDAHSRYHTVHELSARECACV
notes: Crude conditioned medium of transfected CHO cells; also called NRTN NV2; NV2 (from N2)
B4: V5-tagged neurturin variant NV1 (ligand)
chain: ARGKPIPNPLLGLDSTSGARLGARPCGLRELEVRVSELGLGYASDETVLFRYCAGACEAAARVYDLGLRALRQARALRRERVRAQPCCRPTAYEDEVSFLDAHSRYHTVHELSARECACV
notes: Crude conditioned medium of transfected CHO cells; also called NRTN NV1; NV1 (from N1)
B5: V5-tagged neurturin variant NV4 (ligand)
chain: ARGKPIPNPLLGLDSTSGARLGARPCGLRELEVRVSELGLGYASDETVLFRYCAGACEAAARVYDLGLARLQGQGALVGSRVRAQPCCRPTAYEDEVSFLDAHSRYHTVHELSARECACV
notes: Crude conditioned medium of transfected CHO cells; also called NRTN NV4; NV4 (from N4)
B6: NRTN WT (ligand)
mature neurturin monomer of the disulfide-linked homodimer: ARLGARPCGLRELEVRVSELGLGYASDETVLFRYCAGACEAAARVYDLGLRRLRQRRRLRRERVRAQPCCRPTAYEDEVSFLDAHSRYHTVHELSARECACV
notes: also called purified untagged mature wild type neurturin made by the same method as the variants
B7: neurturin variant N2 (untagged, purified) (ligand)
chain: ARLGARPCGLRELEVRVSELGLGYASDETVLFRYCAGACEAAARVYDLGLRRLAQRRRLRAEAVRAQPCCRPTAYEDEVSFLDAHSRYHTVHELSARECACV
notes: Dimeric protein; also called NRTN N2; neurturin mutant N2
B8: neurturin variant N3 (untagged, purified) (ligand)
chain: ARLGARPCGLRELEVRVSELGLGYASDETVLFRYCAGACEAAARVYDLGLRALAQARALRAERVRAQPCCRPTAYEDEVSFLDAHSRYHTVHELSARECACV
notes: Dimeric protein; also called NRTN N3; neurturin mutant N3
B9: neurturin variant N4 (untagged, purified) (ligand)
chain: ARLGARPCGLRELEVRVSELGLGYASDETVLFRYCAGACEAAARVYDLGLARLQGQGALVGSRVRAQPCCRPTAYEDEVSFLDAHSRYHTVHELSARECACV
notes: Dimeric protein; also called NRTN N4; neurturin mutant N4
B10: neurturin variant N1 (untagged, purified) (ligand)
chain: ARLGARPCGLRELEVRVSELGLGYASDETVLFRYCAGACEAAARVYDLGLRALRQARALRRERVRAQPCCRPTAYEDEVSFLDAHSRYHTVHELSARECACV
notes: Dimeric protein; also called NRTN N1; neurturin mutant N1

Molecular target: T1, recombinant human GFRα2-Fc chimera (R&D …)
Test: precipitation from CHO medium with GFRα2-Fc and Protein G-Sepharose, western blot
Procedure: An aliquot of each media (400 μl) was incubated with recombinant human GFRα2-Fc chimera (0.4 μg, R&D Systems), antibodies to the V5-epitope (0.4 μg, Invitrogen) or antibodies to NRTN (0.4 μg, R&D Systems) for 1 h at +4° C. with mixing. Protein G has a strong affinity for antibodies from mouse and goat as well as for the Fc portion of human IgG₁ in the recombinant GFRα2-Fc chimera. Therefore Protein G-Sepharose was added to the samples and the incubation was continued for 1 h at +4° C. with mixing. After pelleting, the samples were eluted from the protein G-Sepharose with reducing Laemmli buffer and loaded on SDS-PAGE. For Western blot analysis of the V5-tagged variants of NRTN, an anti-V5 antibody (Invitrogen) was used with samples loaded on SDS-PAGE under reducing conditions. For Western blot analysis of the untagged variants of NRTN, an anti-NRTN antibody (R&D Systems) was used with samples loaded on SDS-page under non-reducing conditions.

Binding result, binds:
B1
B2
B3
B4
B5

Molecular target: T1, recombinant human GFRα2-Fc chimera (R&D …)
Test: capture on GFRα2-Fc held on Protein G spin column (after heparin column enrichment), 1.0 M NaCl wash, elution with 2.0 M MgCl2; eluate on non-reducing 15% SDS-PAGE, Coomassie stain
Procedure: Media from NRTN-expressing CHO cells (QMCF Technology at Icosagen Ltd) was thawed at room temperature. HITRAP™ Heparin HP columns (1 ml, GE Healthcare) were equilibrated with 10 ml of 10 mM Hepes, pH 7.2 and 1-10 ml of undiluted media was applied with a syringe according to the manufacturer's instructions. The media was collected and run through the column a second time. The columns were washed with 10 ml of 0.2 M NaCl in 10 mM Hepes, pH 7.2. The NRTN enriched samples were eluted with 5×600 μl of 10 mM Hepes pH 7.2, 1.2 M NaCl. Fractions number two and three were collected and concentrated to a final volume of 50-65 μl, according to the manufacturer's instruction in AmiconUltra 0.5 ml 10K concentrators (Millipore). The samples were then diluted 1:10 with 10 mM Hepes pH 7.2 to a final concentration of NaCl around 120 mM. Soluble recombinant GFRα2-Fc chimera (10-200 μg, R&D Systems) was attached to Protein G HP SpinTrap columns (GE Healthcare) in PBS according to the manufacturer's instructions. The 1:10 diluted samples were added to the GFRα2 columns and incubated for at least one hour at +4° C. with mixing. The columns were first washed with 4×400 μl of cold 10 mM Hepes pH 7.2, 1.0 M NaCl and thereafter with 4×400 μl of cold 10 mM Hepes pH 7.2, 0.1 M NaCl. The NRTN samples were eluted with 5×200 μl of pre-warmed (25° C.) 10 mM Hepes pH 7.2, 2.0 M MgCl₂. The eluted fractions were immediately diluted (1:2) with 10 mM Hepes pH 7.2, 0.150 M NaCl and concentrated with AMICONULTRA™ 0.5 ml 10K concentrators. The samples were further diluted in the same buffer (1:2) and subsequently concentrated three times to yield a final concentration of around 125 mM MgCl₂, and 150 mM NaCl in 10 mM Hepes pH 7.2. Samples of the purified proteins as well as a commercially available batch of neurturin were analyzed using […], under non reducing conditions, and visualized via Coomassie staining.

Binding result, binds:
B6
B7
B8
B9
B10
